Experimental data reported in doi:10.1101/2024.07.12.603331 (bioRxiv, 2024).

Target: neonatal Fc receptor (FcRn), recombinant ectodomains (UniProt P55899;P61769)
Test: BLI

Sequence of neonatal Fc receptor (FcRn), recombinant ectodomains (P55899 24-297, chain 1 of 2): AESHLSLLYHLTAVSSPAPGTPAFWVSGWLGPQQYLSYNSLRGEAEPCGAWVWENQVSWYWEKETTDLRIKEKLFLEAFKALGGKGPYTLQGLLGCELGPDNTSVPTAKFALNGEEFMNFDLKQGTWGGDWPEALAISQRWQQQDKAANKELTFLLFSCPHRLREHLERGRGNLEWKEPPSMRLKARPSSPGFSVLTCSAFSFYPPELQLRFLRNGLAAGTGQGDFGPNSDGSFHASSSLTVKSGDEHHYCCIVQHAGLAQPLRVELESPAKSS
Sequence of neonatal Fc receptor (FcRn), recombinant ectodomains (P61769 21-119, chain 2 of 2): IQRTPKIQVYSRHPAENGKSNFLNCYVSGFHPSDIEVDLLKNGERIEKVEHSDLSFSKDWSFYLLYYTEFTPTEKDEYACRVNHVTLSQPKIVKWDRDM

B1: HAstV1 spike protein VP25 (residues S424 to R648) (domain or fragment)
chain: SIPAPGEEFKVVLTFGAPMSPNANNKQTWVNKPLDAPSGHYNVKIAKDVDHYLTMQGFTSIASVDWYTIDFQPSEAPAPIQGLQVLVNSSKKADVYAIKQFVTAQTNNKHQVTSLFLVKVTTGFQVNNYLSYFYRASATGDATTNLLVRGDTYTAGISFTQGGWYLLTNTSIVDGAMPPGWVWNNVELKTNTAYHMDKGLVHLIMPLPESTQMCYEMLTSIPRSR
modifications: biotin (EZ-link NHS-PEG4-Biotin)
Kd: 578 nM
